# Results published in US12194082B2, “Compositions and methods for treatment of homocystinuria” (THE REGENTS OF THE UNIVERSITY OF COLORADO, priority 2016, dated 2025).
# “And” between values parts separate entries of the source, which are not always exact repeats. Equal entries are not always repeated.
# How the values were obtained:
# [1] = Pharmacokinetics of 20NHS PEG-htCBS C15S in rats; settings: for AUC/dose corrected to 80% bioavailability / Cmax/dose corrected to 80% bioavailability / tmax: SC
# Procedure: (§2) CBS activity was determined by a radioisotope assay with C^14-labeled serine as a substrate. Ten μl (total 490 ng) of pure htCBS in dilution buffer (0.1 M Tris-HCl pH=8.6, 1 mM DTT, 10 μM PLP, 0.5 mg/ml BSA) or 10 μl of plasma were added to 85 μl of reaction mixture containing 0.1 M Tris-HCl pH=8.6, 10 mM L-serine, 0.5 mM PLP, 0.5 mg/ml BSA and 0.3 μCi (for pure enzyme) or 0.45 μCi (for plasma) of L-[C^14(U)]-Serine. Samples were incubated for 5 min at 37° C. and reaction was initiated by addition of 5 μl of 0.2 M Hcy (10 mM final concentration). Following 30 min of incubation at 37° C., a 20 μl aliquot of the assay mixture was applied onto a grade 3 CHR Whatman (NJ, USA) paper. Assay initiation and sampling of the resulting mixture were staggered so that each reaction time was 30 minutes. Descending paper chromatography was used to isolate the radioactive product (Cth) from a labeled substrate (Ser). The C^14-cystathionine formed in the reaction was separated from C^14-serine by an overnight descending paper chromatography in 2-propanol/formic acid/H2O (75:5.7:18.9 v/v). Radioactivity in the area of the marker cystathionine (detected by staining the marker lane with ninhydrin) was determined by cutting the chromatogram into strips that were submerged in 5 ml of Opti-fluor scintillation cocktail (PerkinElmer, MA, USA) and counted in a Beckman LS-3801 scintillation counter. An enzyme-free sample was used as a blank to monitor the background radioactivity that was then subtracted from each sample. For pure enzyme, specific activity values are expressed as enzyme units (the amount of enzyme that produces 1 μmol of cystathionine/hour) per mg of CBS, and for plasma samples as units per μl plasma.
# The pharmacokinetic (PK) parameters were calculated using a non-compartmental curve stripping model which resolves a curve into a series of exponential terms corresponding to the absorption, distribution and elimination phases occurring during the time course of the enzyme in the blood. The curve stripping approach assumes that the disposition phases of the drug follow apparent first-order kinetics, which is evidenced by the linearity in the terminal portion of a semi-log plot. These calculations were made using a modeling program called PK Solutions 2.0 (Summit Solutions, Montrose, CO) using the mean plasma enzyme activity for each route of administration. The bioavailability was calculated by dividing the area under the curve (AUC) for the SC or IP route by the AUC observed after IV administration.
# In order to assess the pharmacokinetics of 20NHS PEG-htCBS C15S in rats, wild-type Sprague Dawley rats were injected with a single dose of 20NHS PEG-htCBS C15S through intra-vascular (IV) or sub-cutaneous (SC) routes. The design of a third (repeated dose) PK study (groups 7-9) was adjusted to allow extraction of data after the first dose and thus their combination with a single dose PK study (groups 1-6).
# To further evaluate rats as a species for conducting long-term toxicity studies, the pharmacokinetics of 20NHS PEG-htCBS C15S was determined in three groups of Sprague Dawley rats receiving a total of 9 SC injections every 48 hours of either 4 mg/kg (low), 8 mg/kg (mid), or 24 mg/kg (high) 20NHS PEG-htCBS C15S. […] The experiment was conducted for a length of 24 days.
# [2] = tested on: Hcy, Cys; assay: Plasma metabolites in the I278T facial alopecia study; assay type: in vivo, I278T mice; settings: 3 times per week, 24 hours after injection
# Procedure: (§1) Plasma metabolites homocysteine, cystathionine and cysteine were determined by stable-isotope-dilution liquid chromatography mass spectrometry as previously described in (Allen et al., 1993, Metabolism, 42: 1448-1460). Measurements of total non-protein bound homocysteine and other aminothiols as well as of amino acids in tissue were performed as described in (Maclean et al., 2010b. Mol. Genet. Metab. 101, 153-162). Metabolites were determined by stable-isotope-dilution liquid chromatography mass spectrometry.
# The second group (n=3; 2 males, 1 female) was continuously injected with 7.5 mg/kg of 200MA0B PEG-htCBS C15S administered subcutaneously from 3 W of age until 41 weeks of age. Weight was initially monitored weekly. Physical look was recorded before the experiment and was monitored weekly or bi-weekly after the initial 6 W injection regimen. Metabolite levels were checked before the experiment and 24 hours after the last injection of initial 6 W injection regiment and then followed weekly or bi-weekly.
# The I278T mice, which were at least 120D (W17) old and had visible, fully developed facial alopecia, were split into 2 groups. […] Metabolite levels were determined prior to the treatment initiation and measured during the study 24 hours after the injection, and weight and physical look were initially monitored weekly, and later bi-weekly.
# [3] = CBS enzyme activity assay, specific activity of pure enzyme; assay type: biochemical; settings: lots used in osmotic pumps
# Procedure: as §2
# [4] = tested on: Hcy, Cth, Cys; assay: Plasma metabolites in KO mice of the DEXA study; assay type: in vivo
# Procedure: In 20NHS PEG-htCBS C15S-treated KO mice, the plasma levels of Hcy, Cth, and Cys were measured biweekly over the course of the study and are shown in FIG. 16F. […] The level of Cys (top line) normalized with the treatment from less than 100 μM at day […] to about 200 μM at day 45 and sustained over the course of the study. The level of Cth (bottom line) oscillated around 50 μM throughout the duration of the study.
# Plasma metabolites were determined using the same mice/groups as described above. The end-point levels of metabolites Hcy, Cth, Cys, and Met were determined 24 hours after the last injection to the 20NHS PEG-htCBS C15S-treated KO mice (right bar for each metabolite) and compared with untreated healthy +/− (left bar) and affected −/− KO mice (middle bar), as shown in FIG. 16G. Table 20 provides the P-values used to determine significance for the differences in metabolite levels in the treated group compared to the two control groups.
# [5] = tested on: homocysteine, cystathionine, cysteine, lanthionine, and homolanthionine; assay: Pharmacodynamics (plasma sulfur amino acid metabolites) in monkeys; assay type: in vivo, cynomolgus monkeys (Macaca fascicularis); design: Cystathionine plasma level / Lanthionine plasma level / Homolanthionine plasma level: unit not given here; settings: for Homolanthionine plasma level / Lanthionine plasma level / Cystathionine plasma level: mean ± SEM
# Procedure: as §1
# [6] = tested on: homocysteine, cystathionine, cysteine; assay: Pharmacodynamics after a single dose of PEGylated htCBS C15S in HO mice; assay type: in vivo
# Procedure: as §1
# For 20NHS PEG-htCBS C15S, HO mice were administered SQ a dose of 5, 10 or 15 mg/kg dose or were administered IV a dose of 10 mg/kg. For 400MA-htCBS C15S, HO mice received a single dose of 10 mg/kg either SC or IV of one of the three forms: (i) a mixture of all species, where no separation of individual forms has been attempted (mix), (ii) a homoPEGylated specie (Peak 1), and (iii) a hetero/hemiPEGylated species (Peak 2).
# Both male and female HO mice were used in this example, and each group contained 3 to 4 mice. Two groups of mice designated “A” and “B” were used for each route of administration to minimize the blood volume taken from any one mouse. For SC administration, blood was collected from group A at 0.5, 3, 24, and 72 hours post-injection and from group B at 1, 6, 48, and 96 hours post-injection. […]
substance,measurement,setting,value
20NHS PEG-htCBS C15S: htCBS C15S PEGylated with ME-200GS PEG (20 kDa linear NHS ester-activated PEG),plasma CBS activity on repeated dosing,"[1]; 9 SC injections every 48 hours, 4, 8 or 24 mg/kg",substantial decline in peak CBS activities
same,AUC/dose corrected to 80% bioavailability,[1]; Rat/Female,1233 (mU-h/mL)/(mg/kg)
same,Cmax/dose corrected to 80% bioavailability,[1]; Rat/Female,16 (mU/μL)/(mg/kg)
same,tmax,[1]; Rat/Female,29 h
same,AUC/dose corrected to 80% bioavailability,[1]; Rat/Male,1452 (mU-h/mL)/(mg/kg)
same,Cmax/dose corrected to 80% bioavailability,[1]; Rat/Male,17 (mU/μL)/(mg/kg)
same,tmax,[1]; Rat/Male,35 h
same,AUC0−t (obs area),"[1]; females, 4 mg/kg IV",6165 mU-h/μl
same,Bioavailability,"[1]; females, 4 mg/kg IV",100%
same,MRT (area),"[1]; females, 4 mg/kg IV",45.5 h
same,cp0,"[1]; females, 4 mg/kg IV",186.2 mU/μl
same,AUC0−t (obs area),"[1]; females, 8 mg/kg SC",4505 mU-h/μl
same,Bioavailability,"[1]; females, 8 mg/kg SC",36.5%
same,MRT (area),"[1]; females, 8 mg/kg SC",76.8 h
same,cmax,"[1]; females, 8 mg/kg SC",58.2 mU/μl
same,tmax (obs),"[1]; females, 8 mg/kg SC",24 h
same,AUC0−t (obs area),"[1]; females, 24 mg/kg SC",13135 mU-h/μl
same,Bioavailability,"[1]; females, 24 mg/kg SC",35.5%
same,MRT (area),"[1]; females, 24 mg/kg SC",79.8 h
same,cmax,"[1]; females, 24 mg/kg SC",166.3 mU/μl
same,tmax (obs),"[1]; females, 24 mg/kg SC",48 h
same,bioavailability (F %) after SC administration,"[1]; male rats, across doses",19-21% and 20%
same,AUC0−t (obs area),"[1]; males, 4 mg/kg IV",7231 mU-h/μl
same,Bioavailability,"[1]; males, 4 mg/kg IV",100%
same,MRT (area),"[1]; males, 4 mg/kg IV",52.9 h
same,cp0,"[1]; males, 4 mg/kg IV",182.1 mU/μl
same,AUC0−t (obs area),"[1]; males, 8 mg/kg SC",2703 mU-h/μl
same,Bioavailability,"[1]; males, 8 mg/kg SC",18.7%
same,MRT (area),"[1]; males, 8 mg/kg SC",65.6 h
same,cmax,"[1]; males, 8 mg/kg SC",32.7 mU/μl
same,tmax (obs),"[1]; males, 8 mg/kg SC",48 h
same,AUC0−t (obs area),"[1]; males, 24 mg/kg SC",9269 mU-h/μl
same,Bioavailability,"[1]; males, 24 mg/kg SC",21.3%
same,MRT (area),"[1]; males, 24 mg/kg SC",66.1 h
same,cmax,"[1]; males, 24 mg/kg SC",110.0 mU/μl
same,tmax (obs),"[1]; males, 24 mg/kg SC",38 h
same,Hcy and Cys change vs 400MA PEG-htCBS C15S,[2],decrease Hcy levels and increase Cys levels more substantially
same,specific activity of administered enzyme,[3],673.9 ± 13.2 U/mg
same,specific activity of administered enzyme,[3]; listed as ME-200GS PEGylated htCBS C15S,623.2 ± 16.4 U/mg
same,plasma Hcy,"[4]; during treatment, from about 180 μM",about 90 μM
same,plasma Cys,"[4]; during treatment, from less than 100 μM",about 200 μM
same,plasma Cth,[4]; throughout the study,around 50 μM
same,Homolanthionine plasma level,"[5]; 1 mg/kg SC every 72 h, 176 h",64 ± 7
same,Lanthionine plasma level,"[5]; 1 mg/kg SC every 72 h, 176 h",46 ± 9
same,Cystathionine plasma level,"[5]; 1 mg/kg SC every 72 h, 176 h after first injection",4010 ± 236
same,Cystathionine plasma level,"[5]; 1 mg/kg SC every 72 h, 392 h",4272 ± 333
same,Homolanthionine plasma level,"[5]; 1 mg/kg SC every 72 h, 392 h",72 ± 5
same,Lanthionine plasma level,"[5]; 1 mg/kg SC every 72 h, 392 h",69 ± 7
same,Cystathionine plasma level,"[5]; 3 mg/kg SC every 72 h, 176 h",5629 ± 284
same,Homolanthionine plasma level,"[5]; 3 mg/kg SC every 72 h, 176 h",64 ± 4
same,Lanthionine plasma level,"[5]; 3 mg/kg SC every 72 h, 176 h",103 ± 7
same,Cystathionine plasma level,"[5]; 3 mg/kg SC every 72 h, 392 h",5893 ± 390
same,Homolanthionine plasma level,"[5]; 3 mg/kg SC every 72 h, 392 h",60 ± 10
same,Lanthionine plasma level,"[5]; 3 mg/kg SC every 72 h, 392 h",109 ± 9
same,Cystathionine plasma level,"[5]; 10 mg/kg SC every 72 h, 176 h",7098 ± 12
same,Homolanthionine plasma level,"[5]; 10 mg/kg SC every 72 h, 176 h",50 ± 3
same,Lanthionine plasma level,"[5]; 10 mg/kg SC every 72 h, 176 h",281 ± 43
same,Cystathionine plasma level,"[5]; 10 mg/kg SC every 72 h, 392 h",9318 ± 288
same,Homolanthionine plasma level,"[5]; 10 mg/kg SC every 72 h, 392 h",53 ± 4
same,Lanthionine plasma level,"[5]; 10 mg/kg SC every 72 h, 392 h",353 ± 38
same,plasma Cth,"[5]; 8 hours after IV, 8 and 48 hours after SC administration",significant spikes
same,plasma levels of Hcy and Cys,"[5]; single IV or SC dose, healthy wild-type monkeys",No significant changes
same,single dose producing maximal efficacy response,"[6]; SC, HO mouse model",5 mg/kg
same,plasma levels of Hcy over time,[6]; single 10 mg/kg SC dose,remain decreased up to 72 hours
